As a reminder, the stoichiometry N is a count of units in the complex or per binding partner. In general, Kd refers to the constant that tells how readily two partners part at equilibrium. One may read the koff as the rate constant with which the complex falls apart. In general, kon refers to the second-order rate constant of association.

In assay [1] the target is OrfL (OB-fold protein encoded by ICESt3 of Streptococcus thermophilus), purified, untagged (Streptococcus thermophilus (ICESt3)). The assay is described as follows: SEC-MALS; isolated OrfM or OrfL at 30 µM; Superdex 200 Increase 10/300 GL; 20 mM Tris-HCl pH 7.5, 150 mM NaCl; monomer and dimer.
Assay [2] has the same target. The assay is described as follows: ITC; OrfM at 280 µM injected into OrfL at 28 µM; 298 K; 20 mM Tris-HCl pH 7.5, 300 mM NaCl; single binding site model. Background: Isothermal titration calorimetry measures the heat released or taken up as one component is titrated into another.
Assay [3] addresses OrfM (OB-fold protein encoded by ICESt3 of Streptococcus thermophilus), purified, untagged (Streptococcus thermophilus (ICESt3)). The assay is described as follows: SEC-MALS; isolated OrfM or OrfL at 30 µM; Superdex 200 Increase 10/300 GL; 20 mM Tris-HCl pH 7.5, 150 mM NaCl; monomer and dimer. (In general: In gel filtration, larger molecules generally elute earlier.)
Assay [4] deals with OrfL (OB-fold protein encoded by ICESt3 of Streptococcus thermophilus), purified, untagged (Streptococcus thermophilus (ICESt3)). The assay is described as follows: SEC-MALS; OrfL and OrfM mixed at 1:1 and 2:1 OrfL:OrfM molar ratios; Superdex 200 Increase 10/300 GL; 20 mM Tris-HCl pH 7.5, 150 mM NaCl.
The target is the same in assay [5]. The assay is described as follows: switchSENSE (fluorescence proximity sensing); OrfL covalently coupled to a 48-mer DNA nanolever on the chip; OrfM injected at 0.625 to 10 µM; PE40 buffer (10 mM NaP pH 7.4, 40 mM NaCl, 0.05% Tween 20); 25°C.

“OrfL (OB-fold protein encoded by ICESt3 of Streptococcus thermophilus), purified, untagged (natural protein)”: in assay [1], the stoichiometry N was 2.

“OrfM (OB-fold protein encoded by ICESt3 of Streptococcus thermophilus), purified, untagged (natural protein)”: in assay [2], the Ka amounted to 7.1e+06 M⁻¹, the Kd is 140 nM, the dH is -35.9 kcal/mol and the stoichiometry N is 0.87. In addition, in assay [3], the fraction of the injected protein found as dimer turned out to be 5% and the stoichiometry N is 2. In addition, in assay [4], the fraction of the sample found as the complex (1:1 ratio) is 92% and the stoichiometry N was 1. In assay [5], this substance displayed a Kd of 311 nM, a koff of 0.019 s⁻¹ and a kon of 62000 M⁻¹ s⁻¹.

For the origin of these results see paper PMC12614216.
